The source of these data is patent US20230364207A1.

The target in one data set is trastuzumab. Description: cell-based or functional assay.
Data set [1] has as its target IgG1 in the sera of humans.
Data set [2] concerns the target human IVIg (an intravenous human immunoglobulin).
For data set [3], the target named is IgG in the sera of rabbits.
For data set [4], the target named is rabbit IgG (rabbit polyclonal IgG antibody 1 and 2).
Data set [5] concerns the target IgG in the sera of monkeys.

Turning to IdeE mutant T8D (enzyme), in the data set with trastuzumab, the Fold of activity relative to wild-type (ELISA-based human IgG1 cleavage) was found to be 2.21 fold and the activity of cleaving human IgG1 relative to wild-type IdeE (SDS-PAGE) came to 2 fold.
Take IdeE mutant A59V (enzyme): in the data set with trastuzumab, the Fold of activity relative to wild-type (ELISA-based human IgG1 cleavage) is 2.68 fold and the activity of cleaving human IgG1 relative to wild-type IdeE (SDS-PAGE) was determined as 2 fold.
Take IdeE mutant E97D (enzyme): in the data set with trastuzumab, the Fold of activity relative to wild-type (ELISA-based human IgG1 cleavage) worked out at 2 fold and the activity of cleaving human IgG1 relative to wild-type IdeE (SDS-PAGE) is 2 fold.
IdeE mutant A10R (enzyme): the Fold of activity relative to wild-type (ELISA-based human IgG1 cleavage) with trastuzumab was 2.2 fold.
In the data set with trastuzumab, IdeE mutant T8W (enzyme) showed a Fold of activity relative to wild-type (ELISA-based human IgG1 cleavage) of 2.58 fold and an activity of cleaving human IgG1 relative to wild-type IdeE (SDS-PAGE) of 2 fold.
For the molecule “IdeE C-terminal truncated mutant WT_delC5 (enzyme)”, the cleavage activity on human IgG1 relative to wild-type IdeE (SDS-PAGE) in the data set with trastuzumab is over 2 fold.
IdeE mutant T24G (enzyme) yielded a Fold of activity relative to wild-type (ELISA-based human IgG1 cleavage) with trastuzumab of 2.09 fold.
In turn, IdeE mutant A10K (enzyme) showed a Fold of activity relative to wild-type (ELISA-based human IgG1 cleavage) in the data set with trastuzumab of 1.99 fold.
As to “IdeE C-terminal truncated mutant WT_delC10 (enzyme)”, the cleavage activity on human IgG1 relative to wild-type IdeE (SDS-PAGE) with trastuzumab was over 2 fold.
IdeE mutant A59I (enzyme) showed a Fold of activity relative to wild-type (ELISA-based human IgG1 cleavage) with trastuzumab of 2.31 fold.
Molecule IdeE mutant T8E (enzyme) registered a Fold of activity relative to wild-type (ELISA-based human IgG1 cleavage) with trastuzumab of 2.09 fold.
With IdeE mutant T8Y (enzyme), in the data set with trastuzumab, the Fold of activity relative to wild-type (ELISA-based human IgG1 cleavage) amounted to 2.3 fold.
In the data set with trastuzumab, IdeE mutant R280H (enzyme) showed a Fold of activity relative to wild-type (ELISA-based human IgG1 cleavage) of 2.3 fold and an activity of cleaving human IgG1 relative to wild-type IdeE (SDS-PAGE) of 2 fold.
In the case of IdeE mutant A59L (enzyme), in the data set with trastuzumab, the Fold of activity relative to wild-type (ELISA-based human IgG1 cleavage) worked out at 2.41 fold and the activity of cleaving human IgG1 relative to wild-type IdeE (SDS-PAGE) was found to be 2 fold.
In the data set with trastuzumab, IdeE mutant R280K (enzyme) registered a Fold of activity relative to wild-type (ELISA-based human IgG1 cleavage) of 2.2 fold.
In the data set with trastuzumab, IdeE mutant T24S (enzyme) showed a Fold of activity relative to wild-type (ELISA-based human IgG1 cleavage) of 2.18 fold.
In the data set with trastuzumab, IdeE mutant T24A (enzyme) showed a Fold of activity relative to wild-type (ELISA-based human IgG1 cleavage) of 2.23 fold and an activity of cleaving human IgG1 relative to wild-type IdeE (SDS-PAGE) of 2 fold.

B1: IdeE combinatorial mutant E97D_del18 (protein)
chain: ITSVWTKGVTPLTPEQFRYNNEDVIHAPYLAHQGWYDITKAFDGKDNLLCGAATAGNMLHWWFDQNKTEIEAYLSKHPDKQKIIFNNQELFDLKAAIDTKDSQTNSQLFNYFRDKAFPNLSARQLGVMPDLVLDMFINGYYLNVFKTQSTDVNRPYQDKDKRGGIFDAVFTRGDQTTLLTARHDLKNKGLNDISTIIKQELTEGRALALSHTYANVSISHVINLWGADFNAEGNLEAIYVTDSDANASIGMKKYFVGINAHRHVAISAKKIEGENIGAQVLGLFTLSSGKDIWQKLSHHHHHH
Regarding B1, in data set [1], the “cleavage in human serum in vitro (SDS-PAGE, 25 kD Fc fragment)” value was “E97D_del18 can effectively and specifically cleave IgG1 in the sera of humans”. Besides, the “cleavage of serum IgG of different species (SDS-PAGE)” value with IgG in the sera of pigs was “IgG in the sera of pigs was cleaved more effectively”; in [3], “IgG in the sera of rabbits was cleaved most effectively”; in the data set with IgG in the sera of mice it was “IgG in the sera of rats and mice was nearly uncleaved”; in the data set with IgG in the sera of rats, “IgG in the sera of rats and mice was nearly uncleaved”; with dog IgG, “E97D_del18 can effectively cleave IgG in the sera of rabbits, dogs and monkeys”; in data set [5] it was “E97D_del18 can effectively cleave IgG in the sera of rabbits, dogs and monkeys”. In addition, the “cleavage of human IVIg in mouse serum and plasma in vitro (SDS-PAGE)” value in [2] is “E97D_del18 can effectively cleave human IVIg in both the sera and plasmas of mice”. The “cleavage in mouse serum in vitro (SDS-PAGE, 25 kD Fc fragment)” value in the data set with IgG in the sera of mice is “has very low or no activity of cleaving IgG1 in the sera of mice”. Moreover, the results for the “cleavage of immunoglobulins of different species (SDS-PAGE)” value (in [4]; with dog IgG) were “E97D_del18 can effectively cleave ... rabbit IgG” and “E97D_del18 can effectively cleave dog IgG”, respectively.
